Experimental data: patent publication US20210077638A1

Assays:
[1] = molecular target: human MET on EBC-1, NCI-H441 and NCI-H358 cells (human) (UniProt P08581); test: cell binding assay on EBC-1 cells, n=1, gamma counting
hMET.mmh (human) = hMET.mmh (human) (UniProt P08581); test: SPR Biacore T-200, antibody captured by anti-human Fc, 90 nM hMET.mmh, 25 C (second run)

Row | Substance | IR (%) (immunoreactivity, percent of activity bound to cells) [1] | Antigen Bound (hMET.mmh (human)) [RU/nm]
1 | non-specific DFO-Ab radioimmunoconjugate (antibody) | 2.8 | –
2 | Non-binding isotype Control (antibody) | – | -1.46
